Laboratory results from the DeepSol protein solubility set.

Test: soluble on expression in E. coli; label from the status in PepcDB or PDB records

| Sequence | soluble on expression in E. coli |
| --- | --- |
| MAFICPEEIEAYAEEHSSELHPILEELVEFTYKNTDLPQMMVGRAEGNFLKMLVEISGAKRVLEIGTFTGFSALMMAQGLPEDGKLTTIEVNPEYAQMAKSFIERAPWGKKIEVIVGDARKVLEEFKKESFDFIFIDADKSSYPYYYEKCLELLKKGRLMAIDNALWEGKVLEPDDNRSKAIARMNEMIKEDPRVEKVLLTVRDGIFLVRKI | soluble |
| MAFVLDASTAVAWCFDEHHPAADRTLELAKVSEPRAPAILWFELRNAALMGIRRGRVKAEAADGVLARIERIRISIAPLPPAADPIFALAQRHRLTFYDAAYLELAQRERIGLATLDAALVGA | not soluble |
| MAFWQSKTLTEMTSQEWESLCDGCGKCCLNKLIDDETEELYYTNAACLLLDHQTTSCQHYSDRFRYVPQCTVITAQNVHELTWLPDSCAYRRLAAGRALPSWHPLLTGSKDAMHLAGMSIQGKVVDERRVKDIEDHIVLWPLKDLD | soluble |
| MAFYNSIPLIGKHLKSESRAKKYTSEEFKRLEREYRDHIGLPENSSFSSDAFDKLVSSRVDDFRAFPKTNLPGGLLFHDKLKEANTTEGDNIRDVLSKTVLAPTEKFKTAQKNFTESTSTFKELTKLIPSKFRAQDLVGTMKELTDDARKAIIEQQAHEIQMLKEKLDPQKEGQAGNYVSDFKKALGLKDNDEVKKVTEGLIKELEETHKKQLGEFDKSTSDSLNQLHKASASESSEYLFLANLYENNKEMRQTLEKLYAKERQRKGLPPESTTVQVGISENKIDLNGIKLKDIPVIKSITGREIHQQPDGSFAIQMPMINPFYYQDPRQNVKTDMMLIAQAIKASGYDSIEMNCNFPNSEKVAMERGRQAFAACIEAGFPVDKITINVNGKPMKADELFKEHPKTYQDIMSRASKISKDYEDIKAPKTSTAPVNTVVVKQEIAALRTKQQQEERAQTQPVDEQRHGVTPNNLEHHHHHH | not soluble |
| MAGDPMADQEANAEQPMPKAEQKKPEKKAVQVQKKEDDTSAWIKTEKPAKLPILMYHSISSGNSLRVPKKEFEAHMKWLHDNGYQTLTPKEASLMLTQDKKPSEKCVLITFDDGYTDNYQDAYPVLKKYGMKATIFMIGKSIGHKHHLTEEQMKEMAQHGISIESHTIDHLELNGLTPQQQQSEMADSKKLFDNMFHQQTTIISYPVGRYNEETLKAAEKTGYQMGVTTEPGAASRDQGMYALHRVRVSPGMSGSAFGAYIESMKLEHHHHHH | soluble |
| MAGDPMFKLKINNFQLGFKLVQWPVTNHLLKHFYVFPINNKGGLAIKRIISLALFKKRLNKDKINNCHVWEEELPDGSYDMGFNGNFNHMEKRKSGYVTQKQFSEFKDANNQRLIKIETTLAIQGEQINKLTQTVEKQGEQINQLVQVVLLQGASKLENFKWSKKHKDKSLMPAWIVWKIFWWKVLEHHHHHH | not soluble |
| MAGDPMGNSSTKGSADSKGDKLHVVTTFYPMYEFTKQIVKDKGDVDLLIPSSVEPHDWEPTPKDIANIQDADLFVYNSEYMETWVPSAEKSMGQGHAVFVNASKGIDLMEGSEEEHEEHDHGEHEHSHAMDPHVWLSPVLAQKEVKNITAQIVKQDPDNKEYYEKNSKEYIAKLQDLDKLYRTTAKKAEKKEFITQHTAFGYLAKEYGLKQVPIAGLSPDQEPSAASLAKLKTYAKEHNVKVIYFEEIASSKVADTLASEIGAKTEVLNTLEGLSKEEQDKGLGYIDIMKQNLDALKDSLLVKSLEHHHHHH | soluble |
| MAGDPMKSSQYPAQDLKRRVLAWAVKLKVNPRAVRVQDMHRKWGSCSSTGTITLASDLLDQEQRFQDYVIVHELLHLRFATHGRMFKALMSAYVPGWRAMEGMGQHRICRKYRSTRSTVLEHHHHHH | not soluble |
| MAGDPMPTLFDDPLHQLPRPPRRVAAGVVHLPNFLGLAEQKALVAQARDLAREVVGTPLAMVRPKLKSGQMSVHMLHLGKYWASNPYRYVDVVDGFPVPPLPDSFVDLAHRALLSAGSLSNSLQSWSEAYRAEAALVNYYSPDASMGMHQDANEESEAPVISLSIGDTGIFRLGGTLNRNKPWTDIPLMSGDLIVFGGANRQAFHGIPSIEANTAPAGCGLKEGRINITIRQLALAAALEHHHHHH | soluble |
| MAGDPMVMRLSKIYGKQIYTTKGKYVGYVDEVIIDIDEGRGEVVLLALPGERVGVPYERVTAVGDIILVEATTEKKRISQEGLEHHHHHH | not soluble |
| MAGDPNSMMIARTLSIFIGTLLLATCSIPTRLNIPTIAITDHPKYKLLLILIDGLRADALEHGQAPQLARLASDGVHARWMTPSYPALTLPNAYTLITGLRPDHHGIVHNTMEDPLLGAFESERQEAISNGRWWGGEPIWVSAEHAGIRSATFLWPGSEASIAGTRPSRWYAYNKHISADTQITQALRWLNERGPDAPRLVILRFEQVNTAGDNFGPDSPQYAAAVNMIDSAIGRLIDSLRQHGKLTDTDVIVVSDQGIAPIPGDHAVPLERIVQLSDVHVVSDGQVLGITPLPGHESKVEAMVLGAHATYDCWRKQALPTHWHYGTHPRIPNIVCQMHEGWNALSAAQITKRNPLQMGGSSGFDPMLPSMRAVFLANGPSFMPNLLLNPINNVDIYPLLARLLGIAMAPNDGNPRALLQALRTSNTANGYTYSKRNALHLEHHHHHH | not soluble |
| MAGENIIIDLNFAVSANPREVWDVLTDFDRMADFVSNLKESKVVSISEDKFTIFQNGTATYGPIRYPFESIREVRLIPYHKILTHLVSGNMHKLDGTTYLTDETGGTRVVHRTEAIPKVWIPAVVGKVFIEHEVREQFNEMRNEIIRRKRAALKKGHEKQDGRLEHHHHHH | soluble |
| MAGGGAGDPGLGAAAAPAPETREHLFKVLVIGELGVGKTSIIKRYVHQLFSQHYRATIGVDFALKVLNWDSRTLVRLQLWDIAGQERFGNMTRVYYKEAVGAFVVFDISRSSTFEAVLKWKSDLDSKVHLPNGSPIPAVLLANKCDQNKDSSQSPSQVDQFCKEHGFAGWFETSAKDNINIEEAARFLVEKILVNHQSFPNEENDVDKIKLDQETLRAENKSQCCLEHHHHHH | not soluble |
| MAGGLIRGKLIAIIGDEDTVTGFLLGGIGELNKNRKPNFLVVEKETSVTEIEETFRSFLNRDDIGIILINQFIAEMIRHAIDAHTISIPAVLEIPSKEHPYDATKDSILRRAKGMFTVDDLR | soluble |
| MAGHQISFAKEVQPIIETKCLSCHSCFDAPCQLKLESAESLLRGASQEPVYSSARTTEMKPTRLGIDELTVAGWRKRGFYSVLQSDREHAQSLLKNMITLGKQYPFPPNSKLPDSIKTGFARKNQCVSEEEFPGYAHDHPFEGMPFGTSGLTDREYSLLAGWLNQGAAVTDEPVTLTRDEEQTIRTWETLFNRDDKRGRLVARWLYEHLFLAYLYFPEAGDEPRFFELLRSSTPSGEAIIPVATVSPNSDPGGPFFYRLRPISGTIVHKRRISYPLDQMKLRRISELFFSEDWPVGDLPGYDYTERSNPFVTFAAIPARARYQFMLDEAEYFVRTFIHGPVCRGQIATDVIRDHFWTLFQSPESDLFITADTYRRQAIPLLGIPGQDDDLLDAGENWLRYLKRHNDYLALRQQHYVAQQPQGASLAHIWNGDGHNENALLTIFRHHNSASVVRGLAGAVPQTIWLMDYPLLEQTYYQLVVNFNVFGNVAHQVLTRLYFDLIRNGSEQNFVRLLPAGQRKTILNDWYQDLGKLKFGIVYEDIDDRSPSAERFVTENPKLELASHMLERFQSINTLSHDPLNRCEQGNCSRIDQPHWIQQADRALSGIAAQPAASLPGISLLPEVTFVRVQHGQNERTVYTLLRDRAHSNVAFMLGEELRYQPEKDRVTVYPGITGSYPNFMFDVPAAQVGEFVAKLSKAGKIKDFEQIVETWGIRRTHPQFWEILHDITAWQKQQQPLQAGIFDINRYENFLEHHHHHH | not soluble |
| MAGHSKWANIKHRKAAQDAQRGKIFTKLIRELVTAAKIGGGDVSANPRLRAAVDKALSNNMTRDTINRAIDRGVGGGDDTNMETKIYEGYGPGGTAVMVECLSDNANRTISQVRPSFTKCGGNLGTEGSVGYLFSKKGLILIAEADEDALTEAAIEAGADDIQPQDDGSFEIYTAWEDLGSVRDGIEAAGFKVQEAEVTMIPSTTVDLDIETAPKLLRLIDMLEDCDDVQNVYHNGEICDEVASQL | not soluble |
